Laboratory results reported in article PMC5261807 (2017).
One block for each binder: values may come before it. Non-standard residues stand in square brackets, D forms with d. Primed or numbered codes have the meaning given here. No end group written: not given here. Me2a″ = asymmetric dimethylarginine (Rme2a); Me2s″ = symmetric dimethylarginine (Rme2s); Arg(Me2a) = CN(C)C(=N)NCCC[C@H](N)C(=O)O; Lys(Me3) = C[N+](C)(C)CCCC[C@H](N)C(=O)O; Arg(Me2s) = CN=C(NC)NCCC[C@H](N)C(=O)O; pT = C[C@@H](OP(=O)(O)O)[C@H](N)C(=O)O; Me2a = asymmetric dimethyl (on Arg); Lys(Me2) = CN(C)CCCC[C@H](N)C(=O)O; Me2s = symmetric dimethyl (on Arg); pS = N[C@@H](COP(=O)(O)O)C(=O)O; Lys(Me) = CNCCCC[C@H](N)C(=O)O; Me3″ = trimethyl lysine (Kme3); Me3 = trimethyl (on Lys); Me2 = dimethyl (on Lys)

Experiments:
[1] = biological target: T1, Bdf1 bromodomain 2 (GST-tagged, WT) (Saccharomyces cerevisiae (strain ATCC …, UniProt P35817)); test: histone peptide array probed with recombinant GST-bromodomain, signal normalised to myc peptide control
T1 chain: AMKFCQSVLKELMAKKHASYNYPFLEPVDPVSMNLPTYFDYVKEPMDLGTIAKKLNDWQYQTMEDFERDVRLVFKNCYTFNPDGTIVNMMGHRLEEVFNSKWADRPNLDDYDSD

[2] = biological target: T2, Bdf1 bromodomain 1 (GST-tagged, WT) (Saccharomyces cerevisiae (strain ATCC …, UniProt P35817)); test: as above
T2 chain: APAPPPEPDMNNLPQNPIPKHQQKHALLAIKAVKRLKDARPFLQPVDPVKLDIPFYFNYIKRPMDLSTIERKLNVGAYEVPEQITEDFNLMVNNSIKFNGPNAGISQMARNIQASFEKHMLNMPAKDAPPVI

binding score [1]: 0 | binding score [2]: 0.00699
B1: H2B 1-19 (peptide)
chain: PDPAKSAPAPKKG[pS]KKAVT

binding score [1]: 0.0133 | binding score [2]: 0.00251
B2: H3 1-19 (peptide)
chain: ARTKQTARKSTGGKAPRKQ
modifications: A R T Kac Q T A Rme2s Kme2 S T G G K A P R K Q

binding score [1]: 0 | binding score [2]: 0.00143
B3: H3 16-35 (peptide)
chain: PRKQLATKAAR(Me2a″)K(Ac)[pS]APATGG

binding score [1]: 0 | binding score [2]: 0.0113
B4: H3 1-19 (peptide)
chain: AR(Me2a)TK(Me)QTAR(Me2s)K(Me3)STGGKAPRKQ

binding score [1]: 0.329 | binding score [2]: 0
B5: H2B 1-19 (peptide)
chain: PDPAK(Ac)SAPAPKK(Ac)GSK(Ac)KAVT

binding score [1]: 0.00305 | binding score [2]: 0
B6: H3 1-19 (peptide)
chain: ARTK(Me)QTARKSTGGKAPRKQ

binding score [1]: 0.0062 | binding score [2]: 0
B7: H3 1-19 (peptide)
chain: AR[pT]KQTARKSTGGKAPRKQ

binding score [1]: 0.388 | binding score [2]: 0.0949
B8: H2a 1-19 (peptide)
chain: [pS]GRGK(Ac)QGGK(Ac)ARAK(Ac)AKSRSS

binding score [1]: 0.00915 | binding score [2]: 0.0228
B9: H3 1-19 (peptide)
chain: ARTKQTARKSTGGKAPRKQ
modifications: A R T Kme2 Q T A Rme2a Kac S T G G K A P R K Q

binding score [1]: 0.00443 | binding score [2]: 0
B10: H3 1-19 (peptide)
chain: A[Arg(Me2a)]T[Lys(Me3)]QTAR[Lys(Me2)]STGGKAPRKQ

binding score [1]: 0.00797 | binding score [2]: 0.00717
B11: H2a 1-19 (peptide)
chain: SGRGKQGGK(Ac)ARAKAKSRSS

binding score [1]: 0.0894 | binding score [2]: 0.0545
B12: H3 1-19 (peptide)
chain: ARTKQTARKSTGGKAPRKQ
modifications: A Rme2s T Kac Q T A Rme2a Kac S T G G K A P R K Q

binding score [1]: 0 | binding score [2]: 0
B13: H4 1-19 (peptide)
chain: SGRGKGGKGLGKGGAKRHR
modifications: S G R G K G G K G L G K G G A Kac R H R

binding score [1]: 0 | binding score [2]: 0
B14: H3 1-19 (peptide)
chain: ARTKQTARKSTGGKAPRKQ
modifications: A Rme2s T Kme2 Q T A Rme2a Kme2 S T G G K A P R K Q

binding score [1]: 0.00915 | binding score [2]: 0.0672
B15: H3 1-19 (peptide)
chain: ARTK(Ac)QTAR(Me2s″)K(Ac)STGGKAPRKQ

binding score [1]: 0 | binding score [2]: 0
B16: H3 16-35 (peptide)
chain: PRKQLATKAA[Arg(Me2s)][Lys(Me2)]SAPATGG

binding score [1]: 0.000885 | binding score [2]: 0
B17: H3 1-19 (peptide)
chain: ARTKQTARKSTGGKAPRKQ
modifications: A R T Kme2 Q T A Rme2a Kme2 S T G G K A P R K Q

binding score [1]: 0.00797 | binding score [2]: 0
B18: H3 1-19 (peptide)
chain: ARTKQTARKSTGGKAPRKQ
modifications: A Rme2s T Kme2 Q T A Rme2a Kme3 S T G G K A P R K Q

binding score [1]: 0.00895 | binding score [2]: 0
B19: H3 1-19 (peptide)
chain: ARTKQTARKSTGGKAPRKQ
modifications: A Rme2s T Kme2 Q T A R Kme1 S T G G K A P R K Q

binding score [1]: 0 | binding score [2]: 0.000538
B20: H3 1-19 (peptide)
chain: ART[Lys(Me3)]QTA[Arg(Me2a)][Lys(Me2)]STGGKAPRKQ

binding score [1]: 0.00915 | binding score [2]: 0.00179
B21: H3 1-19 (peptide)
chain: ARTK(Ac)QTAR(Me2a)K(Me2)STGGKAPRKQ

binding score [1]: 0.0105 | binding score [2]: 0
B22: H3 1-19 (peptide)
chain: AR(Me2s″)TK(Me)QTARK(Me)STGGKAPRKQ

binding score [1]: 0 | binding score [2]: 0.00126
B23: H3 1-19 (peptide)
chain: A[Arg(Me2s)]T[Lys(Me)]QTA[Arg(Me2a)][Lys(Me)]STGGKAPRKQ

binding score [1]: 0.00502 | binding score [2]: 0
B24: H2a 1-19 (peptide)
chain: [pS]GRGKQGGKARAKAKSRSS

binding score [1]: 0 | binding score [2]: 0
B25: H3 16-35 (peptide)
chain: PRKQLATKAAR(Me2a″)K(Me3″)[pS]APATGG

binding score [1]: 0.127 | binding score [2]: 0.0151
B26: H2a 1-19 (peptide)
chain: SGRGK(Ac)QGGKARAK(Ac)AKSRSS

binding score [1]: 0.00187 | binding score [2]: 0.00161
B27: H3 1-19 (peptide)
chain: ARTKQTARKSTGGKAPRKQ
modifications: A Rme2s T Kme3 Q T A Rme2s Kme1 S T G G K A P R K Q

binding score [1]: 0 | binding score [2]: 0.00143
B28: H2B 1-19 (peptide)
chain: PDPAK(Ac)SAPAPKKGSK(Ac)KAVT

binding score [1]: 0.00325 | binding score [2]: 0
B29: H3 1-19 (peptide)
chain: ARTKQTARKSTGGKAPRKQ
modifications: A R T Kme2 Q T A Rme2s Kme2 S T G G K A P R K Q

binding score [1]: 0.0821 | binding score [2]: 0.0576
B30: H3 1-19 (peptide)
chain: ARTKQTARKSTGGKAPRKQ
modifications: A R T Kac Q T A Rme2a Kac S T G G K A P R K Q

binding score [1]: 0 | binding score [2]: 0
B31: H3 1-19 (peptide)
chain: ARTKQTARKSTGGKAPRKQ
modifications: A Rme2a T Kme3 Q T A Rme2s Kme3 S T G G K A P R K Q

binding score [1]: 0.0394 | binding score [2]: 0.0346
B32: H3 1-19 (peptide)
chain: A[Arg(Me2a)][pT]K(Ac)QTARKSTGGKAPRKQ

binding score [1]: 0.00305 | binding score [2]: 0.0136
B33: H3 1-19 (peptide)
chain: ARTKQTARKSTGGKAPRKQ
modifications: A Rme2s T Kme3 Q T A Rme2a Kac S T G G K A P R K Q

binding score [1]: 0.162 | binding score [2]: 0.00663
B34: H2a 1-19 (peptide)
chain: [pS]GRGK(Ac)QGGK(Ac)ARAKAKSRSS

binding score [1]: 0 | binding score [2]: 0.00681
B35: H3 1-19 (peptide)
chain: ARTKQTARKSTGGKAPRKQ
modifications: A R T K Q T A R K pS pT G G K A P R K Q

binding score [1]: 0 | binding score [2]: 0
B36: H3 1-19 (peptide)
chain: ARTKQTARKSTGGKAPRKQ
modifications: A Rme2a T Kac Q T A Rme2s Kme1 S T G G K A P R K Q

binding score [1]: 0 | binding score [2]: 0.00269
B37: H3 1-19 (peptide)
chain: ARTKQTARKSTGGKAPRKQ
modifications: A Rme2a T Kme3 Q T A Rme2s Kme2 S T G G K A P R K Q

binding score [1]: 0 | binding score [2]: 0
B38: H3 16-35 (peptide)
chain: PRKQLATKAA[Arg(Me2a)]KSAPATGG

binding score [1]: 0.0105 | binding score [2]: 0.00143
B39: H3 1-19 (peptide)
chain: ARTKQTARKSTGGKAPRKQ
modifications: A Rme2a T Kac Q T A Rme2a Kme2 S T G G K A P R K Q

binding score [1]: 0 | binding score [2]: 0
B40: H3 1-19 (peptide)
chain: ARTKQTA[Arg(Me2a)][Lys(Me)]S[pT]GGKAPRKQ

binding score [1]: 0.0294 | binding score [2]: 0
B41: H4 1-19 (peptide)
chain: SGRGKGGKGLGKGGAKRHR
modifications: S G Rme2s G K G G Kac G L G K G G A K R H R

binding score [1]: 0 | binding score [2]: 0
B42: H3 1-19 (peptide)
chain: ARTKQTARKSTGGKAPRKQ
modifications: A R T K Q T A R Kac S pT G G K A P R K Q

binding score [1]: 0.00482 | binding score [2]: 0.0188
B43: H3 1-19 (peptide)
chain: A[Arg(Me2a)]TK(Ac)QTA[Arg(Me2s)][Lys(Me2)]STGGKAPRKQ

binding score [1]: 0 | binding score [2]: 0
B44: H3 1-19 (peptide)
chain: A[Arg(Me2a)]T[Lys(Me2)]QTA[Arg(Me2a)][Lys(Me3)]STGGKAPRKQ

binding score [1]: 0 | binding score [2]: 0
B45: H3 1-19 (peptide)
chain: ARTKQTARKSTGGKAPRKQ
modifications: A R T K Q T A R Kme2 S pT G G K A P R K Q

binding score [1]: 0 | binding score [2]: 0
B46: H3 1-19 (peptide)
chain: ARTKQTARKSTGGKAPRKQ
modifications: A R T K Q T A R Kme1 pS T G G K A P R K Q

binding score [1]: 0.168 | binding score [2]: 0
B47: H2B 1-19 (peptide)
chain: PDPAK(Ac)SAPAPKKG[pS]K(Ac)KAVT

binding score [1]: 0.006 | binding score [2]: 0.00538
B48: background 02 (peptide)
chain: RRKKKRRKKKRKRKKRK
modifications: R Rme2s K Kme1 Kac R Rme2a Kme2 K Kme3 R Kme1 Rme2s K Kac R K

binding score [1]: 0 | binding score [2]: 0
B49: H3 16-35 (peptide)
chain: PRKQLATKAAR[Lys(Me3)]SAPATGG

binding score [1]: 0 | binding score [2]: 0
B50: H3 1-19 (peptide)
chain: A[Arg(Me2a)]TK(Me)QTARKSTGGKAPRKQ

binding score [1]: 0.00108 | binding score [2]: 0
B51: H3 1-19 (peptide)
chain: A[Arg(Me2a)]T[Lys(Me2)]QTARK(Ac)STGGKAPRKQ
